From the supplement of paper PMC10567573

B1: KCNK9 (parent)
chain: DVPDLQSVCSCTCYRSQDYGGRSV
B2: UFD1L (parent)
chain: EAGGRFVAFSGEGQSLRKKGRKP

Variants of: B1
Assay: protein stability index of a GFP-peptide fusion (GPS, HEK-293T) (PSI 1-6); higher = more stable
Conditions: c terminus: a fixed tail appended
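Note: lentivirally expressed fusions sorted by FACS into six bins by GFP to DsRed ratio, PSI derived from sequencing read proportions per bin multiplied by bin number.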

First: DVPFLQSVCSCTCYRSQDYGGRSV [D4F]
Second: DVPILQSVCSCTCYRSQDYGGRSV [D4I]
The protein stability index of the first is lower: 1.4 for the first, 2.81 for the second.

First: DVPMLQSVCSCTCYRSQDYGGRSV [D4M]
Second: DVPKLQSVCSCTCYRSQDYGGRSV [D4K]
The protein stability index of the first is higher: 2.28 for the first, 2.17 for the second.

First: DVPGLQSVCSCTCYRSQDYGGRSV [D4G]
Second: DVPQLQSVCSCTCYRSQDYGGRSV [D4Q]
The protein stability index of the first is lower: 1.45 for the first, 3.18 for the second.

Compared with DVPTLQSVCSCTCYRSQDYGGRSV [D4T], DVPCLQSVCSCTCYRSQDYGGRSV [D4C] is lower in protein stability index: 2.48 for the first, 1.64 for the second.

Compared with DVPDLQSFCSCTCYRSQDYGGRSV [V8F], DVPDLQSRCSCTCYRSQDYGGRSV [V8R] is higher in protein stability index: 2.22 for the first, 2.29 for the second.

First: DVPDLQSMCSCTCYRSQDYGGRSV [V8M]
Second: DVPDLQSDCSCTCYRSQDYGGRSV [V8D]
The protein stability index of the first is lower: 1.06 for the first, 2.8 for the second.

First: DVPDLQSICSCTCYRSQDYGGRSV [V8I]
Second: DVPDLQSTCSCTCYRSQDYGGRSV [V8T]
The protein stability index of the first is higher: 2 for the first, 1.72 for the second.

First: DVPDLQSSCSCTCYRSQDYGGRSV [V8S]
Second: DVPDLQSQCSCTCYRSQDYGGRSV [V8Q]
The protein stability index of the first is lower: 2.06 for the first, 2.42 for the second.

First: DVPDLQSECSCTCYRSQDYGGRSV [V8E]
Second: DVPDLQSNCSCTCYRSQDYGGRSV [V8N]
The protein stability index of the first is lower: 2.24 for the first, 2.5 for the second.

Compared with DVPDLQSLCSCTCYRSQDYGGRSV [V8L], DVPDLQSGCSCTCYRSQDYGGRSV [V8G] is higher in protein stability index: 1.59 for the first, 3.36 for the second.

Going from DVPDLQSACSCTCYRSQDYGGRSV [V8A] to DVPDLQSHCSCTCYRSQDYGGRSV [V8H], the protein stability index falls from 2.8 to 1.57.

First: DVPDLQSPCSCTCYRSQDYGGRSV [V8P]
Second: DVPDLQSYCSCTCYRSQDYGGRSV [V8Y]
The protein stability index of the first is lower: 1.77 for the first, 1.86 for the second.

Compared with DVPDLQSKCSCTCYRSQDYGGRSV [V8K], DVPDLQSWCSCTCYRSQDYGGRSV [V8W] is lower in protein stability index: 1.68 for the first, 1.29 for the second.

Going from DVSDLQSVCSCTCYRSQDYGGRSV [P3S] to DVIDLQSVCSCTCYRSQDYGGRSV [P3I], the protein stability index rises from 1.99 to 2.22.

Compared with DVCDLQSVCSCTCYRSQDYGGRSV [P3C], DVWDLQSVCSCTCYRSQDYGGRSV [P3W] is lower in protein stability index: 2.14 for the first, 1.33 for the second.

Compared with DVHDLQSVCSCTCYRSQDYGGRSV [P3H], DVTDLQSVCSCTCYRSQDYGGRSV [P3T] is lower in protein stability index: 1.8 for the first, 1.73 for the second.

Compared with DVYDLQSVCSCTCYRSQDYGGRSV [P3Y], DVDDLQSVCSCTCYRSQDYGGRSV [P3D] is lower in protein stability index: 1.4 for the first, 1.36 for the second.

First: DVADLQSVCSCTCYRSQDYGGRSV [P3A]
Second: DVNDLQSVCSCTCYRSQDYGGRSV [P3N]
The protein stability index of the first is lower: 1.34 for the first, 1.45 for the second.

Compared with DVKDLQSVCSCTCYRSQDYGGRSV [P3K], DVMDLQSVCSCTCYRSQDYGGRSV [P3M] is higher in protein stability index: 1.12 for the first, 2.11 for the second.

Going from DVGDLQSVCSCTCYRSQDYGGRSV [P3G] to DVQDLQSVCSCTCYRSQDYGGRSV [P3Q], the protein stability index rises from 1.41 to 1.93.

Compared with DVEDLQSVCSCTCYRSQDYGGRSV [P3E], DVPDLDSVCSCTCYRSQDYGGRSV [Q6D] is higher in protein stability index: 2 for the first, 2.27 for the second.

First: DVPDLISVCSCTCYRSQDYGGRSV [Q6I]
Second: DVPDLPSVCSCTCYRSQDYGGRSV [Q6P]
The protein stability index of the first is higher: 2.39 for the first, 1.5 for the second.

Compared with DVPDLTSVCSCTCYRSQDYGGRSV [Q6T], DVPDLYSVCSCTCYRSQDYGGRSV [Q6Y] is higher in protein stability index: 1.85 for the first, 4.08 for the second.

First: DVPDLRSVCSCTCYRSQDYGGRSV [Q6R]
Second: DVPDLHSVCSCTCYRSQDYGGRSV [Q6H]
The protein stability index of the first is higher: 2.73 for the first, 1.88 for the second.

First: DVPDLKSVCSCTCYRSQDYGGRSV [Q6K]
Second: DVPDLASVCSCTCYRSQDYGGRSV [Q6A]
The protein stability index of the first is higher: 1.98 for the first, 1.65 for the second.

Compared with DVPDLGSVCSCTCYRSQDYGGRSV [Q6G], DVPDLCSVCSCTCYRSQDYGGRSV [Q6C] is higher in protein stability index: 1.63 for the first, 2.56 for the second.

First: DVPDLSSVCSCTCYRSQDYGGRSV [Q6S]
Second: DVPDLWSVCSCTCYRSQDYGGRSV [Q6W]
The protein stability index of the first is lower: 1.59 for the first, 2.57 for the second.

Going from DVPDLVSVCSCTCYRSQDYGGRSV [Q6V] to DVPDLMSVCSCTCYRSQDYGGRSV [Q6M], the protein stability index rises from 1.97 to 2.61.

First: DVPDLESVCSCTCYRSQDYGGRSV [Q6E]
Second: DVPDLLSVCSCTCYRSQDYGGRSV [Q6L]
The protein stability index of the first is lower: 1.3 for the first, 3.01 for the second.

First: DVPDLNSVCSCTCYRSQDYGGRSV [Q6N]
Second: DVPDLQSVCACTCYRSQDYGGRSV [S10A]
The protein stability index of the first is higher: 1.82 for the first, 1.66 for the second.

First: DVPDLQSVCDCTCYRSQDYGGRSV [S10D]
Second: DVPDLQSVCECTCYRSQDYGGRSV [S10E]
The protein stability index of the first is higher: 2.79 for the first, 2.16 for the second.

For DVPDLQSVCFCTCYRSQDYGGRSV [S10F], the protein stability index was 1.26.

Variants of: B2
Assay: as above
Conditions: c terminus: native

Going from EAGGRFVAFSGEGQSLRKKGRIP [K22I] to EAGGRFVAFSGEGQSLRKKGRGP [K22G], the protein stability index falls from 2.43 to 2.15.

Going from EAGGRFVAFSGEGQSLRKKGRNP [K22N] to EAGGRFVAFSGEGQSLRKKGRFP [K22F], the protein stability index falls from 2.93 to 2.77.

Compared with EAGGRFVAFSGEGQSLRKKGRTP [K22T], EAGGRFVAFSGEGQSLRKKGRDP [K22D] is higher in protein stability index: 1.45 for the first, 2 for the second.

Going from EAGGRFVAFSGEGQSLRKKGRKC [P23C] to EAGGRFVAFSGEGQSLRKKGRKN [P23N], the protein stability index falls from 3.15 to 2.62.

Going from EAGGRFVAFSGEGQSLRKKGRKK [P23K] to EAGGRFVAFSGEGQSLRKKGRKW [P23W], the protein stability index rises from 4.87 to 5.5.

Compared with EAGGRFVAFSGEGQSLRKKGRKM [P23M], EAGGRFVAFSGEGQSLRKKGRKY [P23Y] is higher in protein stability index: 2.85 for the first, 3.01 for the second.

First: EAGGRFVAFSGEGQSLRKKGRKI [P23I]
Second: EAGGRFVAFSGEGQSLRKKGRKQ [P23Q]
The protein stability index of the first is lower: 3.95 for the first, 4.65 for the second.

Going from EAGGRFVAFSGEGQSLRKKGRKL [P23L] to EAGGRFVAFSGEGQSLRKKGRKS [P23S], the protein stability index falls from 3.73 to 3.2.

First: EAGGRFVAFSGEGQSLRKKGRKV [P23V]
Second: EAGGRFVAFSGEGQSLRKKWRKP [G20W]
The protein stability index of the first is higher: 4.09 for the first, 1.81 for the second.

Going from EAGGRFVAFSGEGQSLRKKGYKP [R21Y] to EAGGRFVAFSGEGQSLRKKGCKP [R21C], the protein stability index falls from 4.7 to 3.45.

Compared with EAGGRFVAFSGEGQSLRKKGAKP [R21A], EAGGRFVAFSGEGQSLRKKGNKP [R21N] is higher in protein stability index: 4.78 for the first, 5.27 for the second.

Compared with EAGGRFVAFSGEGQSLRKKGSKP [R21S], EAGGRFVAFSGEGQSLRKKGLKP [R21L] is higher in protein stability index: 2.83 for the first, 2.88 for the second.

First: EAGGRFVAFSGEGQSLRKKGTKP [R21T]
Second: EAGGRFVAFSGEGQSLRKKGGKP [R21G]
The protein stability index of the first is lower: 4.35 for the first, 5.2 for the second.

First: EAGGRFVAFSGEGQSLRKKGVKP [R21V]
Second: EAGGRFVAFSGEGQSLRKKGIKP [R21I]
The protein stability index of the first is higher: 4.06 for the first, 3.99 for the second.

Going from EAGGRFVAFSGEGQSLRKKGMKP [R21M] to EAGGRFVAFSGEGQSLRKKGQKP [R21Q], the protein stability index rises from 4.38 to 5.19.

Compared with EAGGRFVAFSGEGQSLRKKGKKP [R21K], EAGGRFVAFSGEGQSLRKKGPKP [R21P] is lower in protein stability index: 5 for the first, 4.98 for the second.
